The source of these data is patent publication US20260209365A1, “ANTI-COMMON GAMMA CHAIN PROTEINS AND COMPOSITIONS OF MATTER” (SINOMAB BIOSCIENCE LIMITED, priority 2023, published 2026).

For orientation: EC50 means the concentration that produces a half-maximal response. In general, Kd refers to the free concentration of one partner at which half of the binding sites on the other are occupied at equilibrium, for simple one-to-one binding. A low value points to tighter binding. The koff is a measure of how fast the partners let go of each other. A high value points to a short-lived complex. Usually kon stands for the second-order rate constant of association. Low readings indicate slower complex formation, high ones faster complex formation.

Substitutions are numbered along the chain they refer to.

Assay [1] concerns the target T1, human γc protein (extracellular domain) (human, UniProt P31785 23-262).
T1 construct: Purchased from Sino Biological or made in-house; Residues 1-262 may hold the signal peptide; also called human common gamma chain; purified human γc
T1 sequence: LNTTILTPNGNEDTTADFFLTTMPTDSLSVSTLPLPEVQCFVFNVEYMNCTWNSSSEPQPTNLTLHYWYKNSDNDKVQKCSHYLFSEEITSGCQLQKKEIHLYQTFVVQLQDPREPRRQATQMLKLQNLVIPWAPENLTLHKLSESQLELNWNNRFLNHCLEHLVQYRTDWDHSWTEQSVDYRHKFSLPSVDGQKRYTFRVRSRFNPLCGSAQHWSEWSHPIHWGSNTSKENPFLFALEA
As to the kind of experiment: monoclonal phage ELISA, human γc protein; negative control.

Assay [2] deals with T2, human γc protein (extracellular domain), purified (human (Homo sapiens), UniProt P31785 23-262).
T2 construct: Either purchased from Sino Biological or in-house generated; also called human common gamma chain; CD132; not shown: which was used i
T2 sequence: T1 sequence
The assay can be described thus: ELISA, strip coated with 1 µg/ml human γc, antibody in 5-fold dilutions from 10 to 0.00064 µg/ml, OD 450 nm; sigmoid curve with plateau about 1.55. How it is done: (§1) More particularly, FIG. 3A presents the binding curve of SM-05A and FIG. 3B presents the bin ding curve of SM-05E. In each example, the ELISA strip was coated with 1 μg/ml γc protein from each species and antibody was diluted 5-fold each from 10 μg/ml to 0.00064 μg/ml.
(§2) Selected clones of full-length antibodies were evaluated by ELISA to access the binding specificity.
Background: In an ELISA, binding on a coated surface is turned into a signal by an enzyme label.

The target in assay [3] is T3, cynomolgus γc protein (extracellular domain), purified (cynomolgus (Macaca fascicularis), UniProt P31785 23-254 (human entry)).
T3 construct: Purchased from Sino Biological or in-house; also called cynomolgus (Macaca fascicularis) γc
T3 chain: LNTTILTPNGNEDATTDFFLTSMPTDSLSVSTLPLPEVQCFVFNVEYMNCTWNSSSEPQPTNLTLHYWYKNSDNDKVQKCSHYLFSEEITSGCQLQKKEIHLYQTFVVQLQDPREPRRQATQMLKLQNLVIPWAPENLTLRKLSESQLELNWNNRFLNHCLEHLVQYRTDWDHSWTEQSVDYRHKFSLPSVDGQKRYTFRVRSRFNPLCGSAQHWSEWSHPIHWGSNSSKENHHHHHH
The assay can be described thus: ELISA, strip coated with 1 µg/ml cynomolgus γc, antibody in 5-fold dilutions from 10 to 0.00064 µg/ml, OD 450 nm; curve stays near baseline up to about 0.4 µg/ml and rises to about 1.35 at 10 µg/ml, no upper plateau. The method, then:
as §1, §2

The target of assay [4] is T4, chimpanzee γc protein (extracellular domain), purified (chimpanzee (Pan troglodytes), UniProt P31785 23-262).
T4 construct: also called chimpanzee (Pan troglodytes) γc
T4 sequence: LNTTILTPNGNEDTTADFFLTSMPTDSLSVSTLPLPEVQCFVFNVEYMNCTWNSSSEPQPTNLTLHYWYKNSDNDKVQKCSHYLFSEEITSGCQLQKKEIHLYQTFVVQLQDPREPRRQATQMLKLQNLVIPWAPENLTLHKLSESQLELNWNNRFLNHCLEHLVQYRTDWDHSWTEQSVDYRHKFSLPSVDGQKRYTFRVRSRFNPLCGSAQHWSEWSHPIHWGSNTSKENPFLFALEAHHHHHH
As to the kind of experiment: ELISA, strip coated with 1 µg/ml chimpanzee γc, antibody in 5-fold dilutions from 10 to 0.00064 µg/ml, OD 450 nm; sigmoid curve reaching about 1.4. The method, then:
as §1, §2

In assay [5] the target is T5, common marmoset γc protein (extracellular domain) (common marmoset, UniProt P31785 26-262 (human entry)).
T5 construct: also called Callithrix jacchus γc
T5 chain: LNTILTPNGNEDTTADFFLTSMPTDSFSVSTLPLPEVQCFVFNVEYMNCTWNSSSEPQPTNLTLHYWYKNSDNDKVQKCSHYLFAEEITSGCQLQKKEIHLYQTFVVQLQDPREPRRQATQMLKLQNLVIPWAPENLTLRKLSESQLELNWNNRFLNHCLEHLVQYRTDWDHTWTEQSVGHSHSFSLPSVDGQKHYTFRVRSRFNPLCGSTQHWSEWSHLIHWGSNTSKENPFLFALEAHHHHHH
As to the kind of experiment: BLI, antibody on anti-human IgG sensors, common marmoset γc in solution. The method, then: (§3) Full-length humanized antibodies were evaluated by BLI to access their binding kinetics. The binding activities of full-length anti-γc antibody were investigated using γc proteins (extracellular domain) from human and common marmoset (either purchased or in-house generated). Briefly, anti-γc antibody (20 μg/mL) was immobilized on biosensors via interactions with anti-human IgG; serially diluted γc proteins (at a concentration of 158.7 nM, 79.4 Nm, 39.7n M and 0 nM respectively) were subsequently added following standard operation protocols of the Octet ReD96 system to plot out the association and dissociation curve. Irrelevant antibody (SM03, anti-human CD22 chimeric IgG1 antibody, SinoMab BioScience Limited) was used as the control reference. The KD is within the picomolar-single digit nanomolar range.
(In general: BLI is a label-free optical method that tracks binding on a fibre tip over time.)

Assay [6] addresses T6, cynomolgus γc protein (extracellular domain) (cynomolgus, UniProt P31785 23-254 (human entry)).
T6 construct: also called Macaca fascicularis γc
T6 chain: T3 chain
The assay can be described thus: BLI, antibody on anti-human IgG sensors, cynomolgus γc in solution.

The target of assay [7] is T7, rat γc protein (extracellular domain) (rat).
T7 chain: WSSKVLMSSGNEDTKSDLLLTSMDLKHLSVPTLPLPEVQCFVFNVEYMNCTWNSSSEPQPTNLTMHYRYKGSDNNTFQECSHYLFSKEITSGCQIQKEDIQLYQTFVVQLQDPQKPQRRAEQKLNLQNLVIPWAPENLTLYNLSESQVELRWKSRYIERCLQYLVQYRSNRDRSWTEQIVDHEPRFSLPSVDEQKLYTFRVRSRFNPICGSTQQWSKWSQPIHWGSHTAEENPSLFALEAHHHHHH
The assay can be described thus: BLI, antibody on anti-human IgG sensors, rat γc in solution.

Assay [8] has as its target T1, human γc protein (extracellular domain). The assay can be described thus: BLI (Octet RED96), antibody on anti-human IgG sensors, γc in solution; Experiment 1. How it is done: as §3
Assay [9] deals with T8, mouse γc protein (extracellular domain) (mouse, UniProt P34902 23-263).
T8 construct: also called Mus musculus γc
T8 sequence: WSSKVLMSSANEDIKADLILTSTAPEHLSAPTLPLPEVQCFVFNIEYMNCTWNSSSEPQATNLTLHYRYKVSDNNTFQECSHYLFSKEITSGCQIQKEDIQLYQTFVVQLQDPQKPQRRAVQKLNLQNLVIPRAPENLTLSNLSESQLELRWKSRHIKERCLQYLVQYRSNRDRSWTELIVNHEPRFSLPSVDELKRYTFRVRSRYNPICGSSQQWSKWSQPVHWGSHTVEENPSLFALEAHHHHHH
As to the kind of experiment: BLI, antibody on anti-human IgG sensors, mouse γc in solution. How it is done: as §3

Assay [10] has as its target T1, human γc protein (extracellular domain). As to the kind of experiment: BLI (Octet RED96), antibody on anti-human IgG sensors, γc in solution; Experiment 2. How it is done: as §3
In assay [11] the target is T3, cynomolgus γc protein (extracellular …). As to the kind of experiment: ELISA, strip coated with 1 µg/ml cynomolgus γc, antibody in 5-fold dilutions from 10 to 0.00064 µg/ml, OD 450 nm; curve stays near baseline up to about 0.08 µg/ml and rises to about 1.65 at 10 µg/ml, no upper plateau. How it is done:
as §1, §2

In assay [12] the target is T2, human γc protein (extracellular …). The assay can be described thus: ELISA, strip coated with 1 µg/ml human γc, antibody in 5-fold dilutions from 10 to 0.00064 µg/ml, OD 450 nm; sigmoid curve with plateau about 1.6. How it is done:
as §1, §2

The target of assay [13] is T4, chimpanzee γc protein (extracellular …). The assay can be described thus: ELISA, strip coated with 1 µg/ml chimpanzee γc, antibody in 5-fold dilutions from 10 to 0.00064 µg/ml, OD 450 nm; curve rises to about 1.5 at the last point shown. The method, then:
as §1, §2

M13KO7 (negative) yielded an OD (450 nm) in assay [1] of 0.045 OD.

B1: SM-05A full-length chimeric anti-γc antibody (antibody, V domains shown)
VH: EVQLQQSGPELVKPGASVKISCKTSGYTFTEYTMHWVKQSHGKSLEWIGGIDPYNGGATYNQRFKGKATLTVDKSSSTAYMEFRSLTSEDSAVYYCARRRLYYGNALDYWGQGTSVTVSS
VL: DVLMTQTPLSLPVSLGDQASISCRSSQSLVHSNGNTYLHWYLQRPGQSPKLLIYKVSSRFSGVPDRFSGSGSGTDFTLKISRVEAEDLGVYFCSQTTHVPFTFGSGTKLEIKR
notes: Full-length chimeric antibody made in Expi-CHO (mouse variable, human constant regions)
Turning to B1, the EC50 was 0.02 µg/mL in assay [2], 14.5 µg/mL in [3] and 0.17 µg/mL in [4].

B2: hSM-05A (humanized anti-γc antibody with back-mutation) (antibody, V domains shown)
VH: QVQLVQSGAEVLKPGASVKVSCKASGYTFTEYTMHWVKQARGQRLEWIGGIDPYNGGATYNQRFKGKATLTTDTSTSTAYMELRNLRSDDTAVYYCARRRLYYGNALDYWGQGTLVTVSS
VL: B1 VL with V2I, L3V, T7S, S14T, L15P, D17E, R44K, K50Q, L88V
notes: Full-length humanized antibody; 199-200' and the pairing of claim 11(b); also called hbSM-05A; humanized SM-05A
In the case of B2, the Kd came out at 4.05 nM in [5]; 304 nM in assay [6]; 16.1 nM in assay [7]; 2.69 nM in assay [8]; 108 nM in assay [9]; 8.23 nM in assay [10]. Also, the koff is 0.00121 s⁻¹ in assay [5]; 0.00683 s⁻¹ in [6]; 0.000319 s⁻¹ in [8]; 0.000712 s⁻¹ in [9]; 0.00144 s⁻¹ in [10]. The kon in [5] was determined as 300000 M⁻¹ s⁻¹; in assay [6] it was 22500 M⁻¹ s⁻¹; in assay [8], 119000 M⁻¹ s⁻¹; in [9], 6580 M⁻¹ s⁻¹; in [10], 175000 M⁻¹ s⁻¹.

B3: SM-05E full-length chimeric anti-γc antibody (antibody, V domains shown)
VH: EVHLQQSGPELVKPGASVKIFCKTSGYTFTEYTMHWVKQSHGESLEWIGGIDPNTGGVTYNQKFKGKATLTADKSSSTAYMELRSLTSEDSAVYYCARRRRYYGYALDYWGQGTSVTVSS
VL: B1 VL with L29I, H39E, R44K, S58N, R82S, T96S, T102M
notes: Full-length chimeric antibody made in Expi-CHO
For B3, the values for the concentration for a half-maximal effect (EC50) in [11], in [12] and in assay [13] were 6.47 µg/mL, 0.02 µg/mL and 0.17 µg/mL, respectively.

B4: hSM-05E (humanized anti-γc antibody with back-mutation) (antibody, V domains shown)
VH: B2 VH with Y54N, N55T, A58V, R63K, L101R, N105Y
VL: DIVMTQSPLSLPVTPGEQASISCRSSQSIVHSNGNTYLEWYLQKPGQSPQLLIYKVSNRFSGVPDRFSGSGSGTDFTLKISRVEAEDVGVYFCSQSTHVPFMFGSGTKLEIKR
notes: Full-length humanized antibody; VH 198 / VL 200 tied to SM-05E only by the order '(e.g., SM-05A, SM-05E) ; 199-200' and the pairing of claim 11(d); also called hbSM-05E; humanized SM-05E
For B4, the Kd in [5] is 5.27 nM; in [6], 304 nM; in assay [7], 29.3 nM; in assay [8], 4.82 nM; in assay [9], 66.2 nM; in assay [10], 2.89 nM. The dissociation rate constant (koff) in [5] was found to be 0.00175 s⁻¹; in assay [6], 0.00683 s⁻¹; in [7], 0.00208 s⁻¹; in assay [8] it was 0.000573 s⁻¹; in assay [9] it was 0.0252 s⁻¹; in assay [10] it was 0.000944 s⁻¹. Further, the kon in assay [5] is 333000 M⁻¹ s⁻¹; in assay [6] it was 22500 M⁻¹ s⁻¹; in [7], 71000 M⁻¹ s⁻¹; in assay [8], 119000 M⁻¹ s⁻¹; in assay [9], 340000 M⁻¹ s⁻¹; in assay [10], 327000 M⁻¹ s⁻¹.
